The experiment concerns the target T1, metavinculin-ΔH1′ (lacking residues 963–983) (human, UniProt P18206 1-1134, lacking residues 963–983).
T1 construct: human metavinculin, full length (1-1,134) lacking residues 963-983 (α-helix H1′): 1-962 joined to 984-1,134; also called MV-ΔH1′; source: E. coli BL21-DE3, purified (as full-length metavinculin); not shown: His8, N-terminal, kept
T1 sequence (looked up): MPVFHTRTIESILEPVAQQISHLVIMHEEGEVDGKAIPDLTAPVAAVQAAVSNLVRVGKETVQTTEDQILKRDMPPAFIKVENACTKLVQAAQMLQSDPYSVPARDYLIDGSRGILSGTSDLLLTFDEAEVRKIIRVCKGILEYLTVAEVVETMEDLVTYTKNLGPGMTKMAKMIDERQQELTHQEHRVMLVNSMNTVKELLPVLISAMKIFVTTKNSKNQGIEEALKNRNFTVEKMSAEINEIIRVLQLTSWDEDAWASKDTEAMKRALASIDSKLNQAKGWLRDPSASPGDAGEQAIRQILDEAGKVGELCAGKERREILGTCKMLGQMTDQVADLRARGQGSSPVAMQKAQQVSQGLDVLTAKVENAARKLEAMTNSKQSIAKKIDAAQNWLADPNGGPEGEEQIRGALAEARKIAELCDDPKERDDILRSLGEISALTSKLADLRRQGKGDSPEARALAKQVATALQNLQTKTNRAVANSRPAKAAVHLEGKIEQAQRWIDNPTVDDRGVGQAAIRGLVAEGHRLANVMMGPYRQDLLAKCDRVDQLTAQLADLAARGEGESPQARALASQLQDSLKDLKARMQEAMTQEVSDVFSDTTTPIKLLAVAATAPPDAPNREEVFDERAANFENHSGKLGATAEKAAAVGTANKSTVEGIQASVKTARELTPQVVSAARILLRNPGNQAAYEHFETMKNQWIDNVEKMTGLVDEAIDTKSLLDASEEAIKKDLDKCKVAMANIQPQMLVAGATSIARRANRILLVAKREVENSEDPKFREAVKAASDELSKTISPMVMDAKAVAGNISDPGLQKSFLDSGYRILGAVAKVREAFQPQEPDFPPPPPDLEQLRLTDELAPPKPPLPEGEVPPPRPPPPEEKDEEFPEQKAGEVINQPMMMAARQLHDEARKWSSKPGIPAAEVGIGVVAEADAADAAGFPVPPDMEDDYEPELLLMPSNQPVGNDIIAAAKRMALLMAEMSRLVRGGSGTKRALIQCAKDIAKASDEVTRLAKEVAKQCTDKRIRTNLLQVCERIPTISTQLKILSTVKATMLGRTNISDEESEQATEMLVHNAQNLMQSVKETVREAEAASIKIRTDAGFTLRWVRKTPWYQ
The experiment in a line: pull-down; GST-Vt (0.5 µM) on GST-Sepharose beads, with or without pre-incubation with 5 µM PIP2; 15 µM His8-tagged metavinculin or deletion mutant pre-activated with talin-VBS3, 1 hr 37°C; 20 mM Tris-HCl pH 8, 150 mM NaCl; eluted with glutathione, SDS-PAGE, Western blot. To be noted: both partners purified. On the technique in general: In western blotting, separated proteins are transferred to a membrane and probed.

B1: GST tagged vinculin tail domain (GST-Vt; residues 879–1,066) (domain or fragment, human, UniProt P18206-2 879-1066, looked up)
chain: EEKDEEFPEQKAGEVINQPMMMAARQLHDEARKWSSKGNDIIAAAKRMALLMAEMSRLVRGGSGTKRALIQCAKDIAKASDEVTRLAKEVAKQCTDKRIRTNLLQVCERIPTISTQLKILSTVKATMLGRTNISDEESEQATEMLVHNAQNLMQSVKETVREAEAASIKIRTDAGFTLRWVRKTPWYQ
notes: human vinculin tail domain, residues 879-1,066 of vinculin (1,066-residue isoform), cloned in pGEX-4T-1; source: E. coli BL21-DE3, purified (GSTrap FF, Superdex 75)
B1: the binding result was “binds”.
